B1: THAP1; numbered along this chain (parent)
chain: MVQSCSAYGCKNRYDKDKPVSFHKFPLTRPSLCKEWEAAVRRKNFKPTKYSSICSEHFTPDCFKRECNNKLLKENAVPTIFLCTEPHDKKEDLLEPQEQLPPPPLPPPVSQVDAAIGLLMPPLQTPVNLSVFCDHNYTVEDTMHQRKRIHQLEQQVEKLRKKLKTAQQRCRRQERQLEKLKEVVHFQKEKDDVSERGYVILPNDYFEIVEVPA

Variants of: B1
Experiment: THAP1 transcriptional activity (GFP+/GFP- enrichment relative to wild-type constructs) (ratio to WT); higher = more THAP1 activity (PSMB5 reporter activation)
Conditions: with PSMB5 promoter-GFP reporter
Description: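 Deep mutational scan of human THAP1. Site-saturation single amino acid variant library (residues 2-213) was expressed by lentivirus at MOI ~0.3 in THAP1-knockout HEK-293T cells carrying an endogenous PSMB5 promoter-GFP knock-in reporter. Five days post-transduction, BFP+ cells were FACS-sorted into GFP dim and GFP bright populations and variants were counted by Illumina sequencing. Activity is the GFP-bright/GFP-dim read fold change, mean of 2 replicates, divided by the mean fold change of wild-type (synonymous) constructs in the same screen pool; WT = 1.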

THAP1 transcriptional activity: each site, then its substitutions
L105: N 1.92; K 1.34; H 1.54; Y 0.831; C 1.32; A 1.61; W 0.491; I 2.11; F 0.955; M 1.81; E 1.27; S 2.43; G 1.09; T 1.56
P96: L 1.58; A 1.82; V 0.729; G 1.55; F 0.885; T 1.6; I 0.683; H 0.971; K 1.37; Q 0.834; D 1.15; R 1.45; S 1.72; W 0.452; N 2.72; E 0.84; C 0.965
P101: S 1.96; T 1.5; G 1.27; C 0.582; L 1.19; I 1.27; R 1.3; N 3.11; Q 1.61; A 1.1; W 0.985; H 0.968; Y 1.08; F 0.64; K 1.21; V 0.772
P104: R 0.888; Y 0.704; K 1.14; A 1.09; S 2.12; M 0.907; V 2.16; E 1.85; W 0.527; Q 1.88; T 1.39; F 0.865; G 1.2; I 0.946; D 6.01; C 0.986
P102: D 2; F 0.858; L 1.12; R 1.43; W 1.02; N 1.12; V 2.39; E 1.85; H 1.04; G 2.33; Q 3.01; T 0.743; C 1.36; A 1.01; I 1.31; M 0.907; S 1.09
L100: Y 0.692; M 2.37; T 1.6; R 1.46; H 0.606; D 1.66; G 0.906; K 1.18; Q 1.41; V 1.84; C 0.796; S 2.08; P 1.9; I 1.56; W 0.65; A 1.25
E95: Y 1.04
E98: P 0.816; W 0.567; N 1.21; M 0.62; Q 1.69; T 1.66; G 1.03; D 1.77; C 0.653; S 1.19; K 1.43; Y 0.675; V 1.56; I 1.74; L 0.875; H 0.824; F 0.462; R 0.908; A 1.51
Q99: T 1.16; W 0.514; D 0.731; I 1.32; G 1.87; C 0.535; S 0.884; R 1.3; H 1.07; E 1.22; P 1.81; K 1.5; L 1.11; A 0.795; F 0.667; V 0.773; N 2.66
Q97: T 1.88; P 1.25; M 1.09; G 0.874; F 1.2; H 0.853; K 0.467; C 1.33; R 0.945; A 0.83; V 0.752; I 2.53; Y 0.765; L 1.55; D 1.45; E 1.24; W 0.632; S 0.872; N 0.877
P103: V 1.04; L 1.61; H 0.719; N 0.938; F 0.27; M 0.728; R 1.56; E 1.22; D 1.44; T 1.19; S 1.1; K 1.31; W 0.806; Q 1.15; Y 0.902
